T1: monkey SIRPA protein (cynomolgus monkey, UniProt P78324 31-504 (human entry))
T1 construct: Expressed on 293α cells from pcDNA3.2 V5-DEST or pFLAG V5-DEST vectors; also called cynomolgus monkey SIRPA; cSIRPA
T1 chain: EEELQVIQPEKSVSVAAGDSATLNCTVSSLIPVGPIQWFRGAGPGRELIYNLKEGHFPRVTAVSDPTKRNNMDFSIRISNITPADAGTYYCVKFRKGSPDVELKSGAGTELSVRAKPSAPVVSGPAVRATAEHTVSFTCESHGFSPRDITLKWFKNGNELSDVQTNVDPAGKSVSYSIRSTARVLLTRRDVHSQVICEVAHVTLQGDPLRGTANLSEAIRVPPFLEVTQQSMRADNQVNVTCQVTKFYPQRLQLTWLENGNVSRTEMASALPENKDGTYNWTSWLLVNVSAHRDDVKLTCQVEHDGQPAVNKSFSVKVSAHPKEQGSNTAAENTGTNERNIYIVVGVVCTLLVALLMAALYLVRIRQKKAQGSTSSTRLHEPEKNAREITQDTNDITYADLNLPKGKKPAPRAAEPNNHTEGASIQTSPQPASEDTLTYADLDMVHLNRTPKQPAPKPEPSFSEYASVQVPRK

T2: mouse SIRPA variant hmSIRPA_Δ2 (mouse (with human residues), UniProt P97797 35-513)
T2 construct: FLAG-tagged (pFLAG V5-DEST), on 293α cells; also called hmSIRPA_Δ42 [sic]
T2 chain: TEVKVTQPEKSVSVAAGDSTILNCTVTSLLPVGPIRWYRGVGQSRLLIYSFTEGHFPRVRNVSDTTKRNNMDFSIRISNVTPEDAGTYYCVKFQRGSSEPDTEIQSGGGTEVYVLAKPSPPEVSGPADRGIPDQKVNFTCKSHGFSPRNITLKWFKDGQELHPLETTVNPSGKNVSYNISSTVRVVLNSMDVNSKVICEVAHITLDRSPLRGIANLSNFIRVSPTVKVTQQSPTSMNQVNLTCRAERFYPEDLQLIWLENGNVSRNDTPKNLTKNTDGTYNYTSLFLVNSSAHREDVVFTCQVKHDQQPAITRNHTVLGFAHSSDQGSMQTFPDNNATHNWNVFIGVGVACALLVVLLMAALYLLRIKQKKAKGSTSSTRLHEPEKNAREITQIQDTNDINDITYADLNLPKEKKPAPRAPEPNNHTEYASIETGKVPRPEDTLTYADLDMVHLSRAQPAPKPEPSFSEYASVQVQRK

T3: mouse SIRPA variant hmSIRPA_Δ0 (mouse (with human residues), UniProt P97797 35-513)
T3 construct: FLAG-tagged (pFLAG V5-DEST), on 293α cells
T3 chain: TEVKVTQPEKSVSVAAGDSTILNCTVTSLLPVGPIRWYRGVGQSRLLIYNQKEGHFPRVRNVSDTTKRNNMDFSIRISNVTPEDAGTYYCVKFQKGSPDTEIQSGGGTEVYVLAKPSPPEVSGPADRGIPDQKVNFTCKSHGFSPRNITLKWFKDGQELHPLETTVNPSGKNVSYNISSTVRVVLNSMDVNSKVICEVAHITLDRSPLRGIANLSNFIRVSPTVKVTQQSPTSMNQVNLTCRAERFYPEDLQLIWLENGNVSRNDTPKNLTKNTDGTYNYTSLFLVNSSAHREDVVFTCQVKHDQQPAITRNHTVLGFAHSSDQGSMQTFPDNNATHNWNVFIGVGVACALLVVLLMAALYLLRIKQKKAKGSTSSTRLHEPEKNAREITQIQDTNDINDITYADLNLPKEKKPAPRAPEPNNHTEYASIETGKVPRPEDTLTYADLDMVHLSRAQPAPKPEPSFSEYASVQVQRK


Legend:
[1] = target: T1, monkey SIRPA protein; experiment: blocking cell-based ELISA: peroxidase-labeled CD47-Fc (1 µg/mL) on 293α cells expressing monkey SIRPA; y axis = CD47-Fc signal relative to no antibody (100)
Protocol: After the culture supernatant of human SIRPA or monkey SIRPA expression vector-introduced 293α cells prepared in Example 8)-1 was removed, 50 μL per well of hD13_HIL3, hD13_HIL4h, hD13_H2L2, or hD13_H2L3 diluted with 5% FBS-containing PBS to a final concentration of 0 to 10,000 ng/ml was added to each of pcDNA3.2 V5-DEST-SIRPA_V1, pcDNA3.2 V5-DEST-SIRPA_V2, pcDNA3.2 V5-DEST-monkey SIRPA, and pcDNA3.2 V5-DEST-introduced 293α cells, immediately followed by addition of peroxidase-labeled CD47-Fc prepared with 5% FBS-containing PBS at 1 μg/mL, and the mixture was allowed to stand at 4° C. for one hour. Thereafter, the SIRPA-CD47 binding inhibitory activity was evaluated in the same manner as in 1)-6-3.

[2] = target: T2, mouse SIRPA variant hmSIRPA_Δ2; experiment: cell-based ELISA on 293α cells expressing FLAG-tagged hmSIRPA_Δ2; Abs 490 normalized to FLAG tag [iii]
Protocol: (§1) After the culture supernatant of 293α cells into which the pFLAG V5-DEST-hmSIRPA_Δ0, Δ1, and Δ2 expression vector prepared in 2)-1-2-2 was introduced and the pFLAG V5-DEST-introduced 293α cells was removed, 50 μL per well of four different D13 humanized anti-human SIRPA antibodies and a chimeric anti-human SIRPA antibody diluted with 5% FBS-containing PBS to a final concentration of 10,000 ng/mL were added to these cells, and the mixture was allowed to stand at 4° C. for one hour. Further, 50 μL per well of an anti-FLAG M2 antibody (SIGMA) diluted with 5% FBS-containing PBS to a final concentration of 10,000 ng/mL was added to a well for detecting expression of each SIRPA construct, and the mixture was allowed to stand at 4° C. for one hour. Thereafter, binding to each construct was evaluated in the same manner as in the evaluation of the binding activity of the human SIRPA. Binding of anti-human SIRPA antibodies to each construct was standardized by expression of the FLAG tag.

[3] = target: T3, mouse SIRPA variant hmSIRPA_Δ0; experiment: cell-based ELISA on 293α cells expressing FLAG-tagged hmSIRPA_Δ0; Abs 490 normalized to FLAG tag [i]
Protocol: as §1

| Binder | IC50 (read off the curve) [1] [mg/L] | binding result [2] | binding result [3] |
| --- | --- | --- | --- |
| human chimeric anti-SIRPA antibody cD13 (antibody, human IgG4 S228P, kappa, F234A L235A, V domains shown, Human IgG4proFALA heavy chain, human kappa light chain; also called cD13 (IgG4pf); human chimeric antibody D13) VH: EVQLVESGGGLVQPGRSLKLSCLASGFTFSDYGMIWVRQAPGKGLEWVASISSSSSYIYYADTVKGRFTISRENAKNTLFLHMTSLRSEDTALYYCARRYYGFNYPFDYWGQGVMVTVSS VL: DTVLTQSPALAVSLGQRVTISCGASKSVRTYMHWYQQKSGQQPKLLIYSASNLEAGVPSRFSGSGSGTDFTLTIDPVEADDIANYYCQQSNEPPYTFGAGTKLELKR | ~0.9 | no binding (tested: 10000 ng/mL) | binds |
| humanized anti-SIRPA antibody hD13_H1L3 (antibody, human IgG4 S228P, kappa, F234A L235A, V domains shown, hH1 heavy chain (IgG4proFALA) and hL3 kappa light chain; also called hD13_HIL3; HIL3 antibody) VH: QVQLVESGGGVVQPGRSLRLSCAASGFTFSDYGMIWVRQAPGKGLEWVASISSSSSYIYYADSVKGRFTISRDNSKNRLYLQMNSLRAEDTAVYYCARRYYGFNYPFDYWGQGTMVTVSS VL: DTQLTQSPSSLSASVGQRVTITCGASKSVRTYMHWYQQKPGKQPKLLIYSASNLEAGVPSRFSGSGSGTDFTLTISSLQPEDFATYYCQQSNEPPYTFGQGTKLEIKR | ~0.6 | no binding (tested: 10000 ng/mL) | binds |
| humanized anti-SIRPA antibody hD13_H1L4 (antibody, human IgG4 S228P, kappa, F234A L235A, V domains shown, hH1 heavy chain (IgG4proFALA) and hL4 kappa light chain; also called hD13_HIL4; hD13_HIL4h) VH: QVQLVESGGGVVQPGRSLRLSCAASGFTFSDYGMIWVRQAPGKGLEWVASISSSSSYIYYADSVKGRFTISRDNSKNRLYLQMNSLRAEDTAVYYCARRYYGFNYPFDYWGQGTMVTVSS VL: DTVLTQSPDSLAVSLGQRATINCGASKSVRTYMHWYQQKPGQQPKLLIYSASNLEAGVPSRFSGSGSGTDFTLTISSLQAEDVAVYYCQQSNEPPYTFGQGTKVEIKR | ~1 | no binding (tested: 10000 ng/mL) | binds |

Further lines, results first:

| IC50 (read off the curve) [1] [mg/L] | binding result [2] | binding result [3] | Binder |
| --- | --- | --- | --- |
| ~0.8 | no binding (tested: 10000 ng/mL) | binds | humanized anti-SIRPA antibody hD13_H2L3 (antibody, human IgG4 S228P, kappa, F234A L235A, V domains shown, hH2 heavy chain (IgG4proFALA) and hL3 kappa light chain; also called H2L3 antibody) VH: EVQLVESGGGVVQPGRSLRLSCAASGFTFSDYGMIWVRQAPGKGLEWVASISSSSSYIYYADSVKGRFTISRDNSKNTLYLQMNSLRAEDTAVYYCARRYYGFNYPFDYWGQGTMVTVSS VL: DTQLTQSPSSLSASVGQRVTITCGASKSVRTYMHWYQQKPGKQPKLLIYSASNLEAGVPSRFSGSGSGTDFTLTISSLQPEDFATYYCQQSNEPPYTFGQGTKLEIKR |
| ~0.9 | no binding (tested: 10000 ng/mL) | binds | humanized anti-SIRPA antibody hD13_H2L2 (antibody, human IgG4 S228P, kappa, F234A L235A, V domains shown, hH2 heavy chain (IgG4proFALA) and hL2 kappa light chain; also called H2L2 antibody) VH: EVQLVESGGGVVQPGRSLRLSCAASGFTFSDYGMIWVRQAPGKGLEWVASISSSSSYIYYADSVKGRFTISRDNSKNTLYLQMNSLRAEDTAVYYCARRYYGFNYPFDYWGQGTMVTVSS VL: AIQLTQSPSSLSASVGQRVTITCGASKSVRTYMHWYQQKPGKAPKLLIYSASNLEAGVPSRFSGSGSGTDFTLTISSLQPEDFATYYCQQSNEPPYTFGQGTKLEIKR |
